Experimental data: PMC6337304, “Site-directed Mutagenesis of a β-Glycoside Hydrolase from Lentinula edodes” (Molecules, 2018)

Each substance was assayed on [H][C@]12[C@H](OC(=O)c3ccccc3)[C@]3(O)C[C@H](OC(=O)[C@H](O)[C@@H](NC(=O)c4ccccc4)c4ccccc4)C(C)=C([C@@H](O)C(=O)[C@]1(C)[C@@H](O[C@@H]1OC[C@@H](O)[C@H](O)[C@H]1O)C[C@@]1([H])OC[C@@]21OC(C)=O)C3(C)C (assay: HPLC of 10-deacetyltaxol formation, Michaelis-Menten nonlinear fit). Settings: XDT 0.039–5.0 mmol/L; other conditions as in earlier report.
Format: biochemical, Lentinula edodes
Source text: HPLC of 10-deacetyltaxol formation, Michaelis-Menten nonlinear fit on LXYL-P1−1
LXYL-P1−1 (Lentinula edodes) was tested, and the Km was 0.50 (±0.01) mM, the Vmax was 3.42 µM/min and the kcat was 2.05 ± 0.02 s⁻¹. The kcat/Km was 4100 M⁻¹ s⁻¹.
LXYL-P1−1 (Lentinula edodes; I368E) was tested, and the Km was 0.42 (±0.01) mM, the Vmax was 4.02 µM/min and the kcat was 2.41 ± 0.08 s⁻¹. For the same substance, the kcat/Km was 5740 M⁻¹ s⁻¹.
For “LXYL-P1−1 (Lentinula edodes; I368E/V91S)”, the Km was 0.20 (±0.01) mM, the Vmax was 3.43 µM/min and the kcat was 2.06 ± 0.01 s⁻¹.
LXYL-P1−1 (Lentinula edodes; I368T) was tested, and the Km was 0.35 (±0.10) mM, the Vmax was 2.6 µM/min and the kcat was 1.56 ± 0.34 s⁻¹. For the same substance, the kcat/Km was 4460 M⁻¹ s⁻¹.
